The values below come from patent publication US20160237160A1, “ANTI-TWEAKR ANTIBODIES AND USES THEREOF” (BAYER PHARMA AKTIENGESELLSCHAFT, priority 2013, published 2016).

Changes are numbered by the printed parent chain.

Experiment [1] addresses T1, TWEAKR protein (TPP-2305) (Homo sapiens, UniProt Q9NP84).
T1 construct: TPP-2305; hTNFRSF12Aaa28-80; Human; 30R-AT080; 168; purchased Fitzgerald Inc 30R-AT080
Nature of the experiment: Biacore monovalent KD with TWEAKR protein. The class given is binding. Particulars: for ka / kd: first order 1:1 binding model. As for the experimental part: Binding affinities of anti-TWEAKR antibodies were determined by surface plasmon resonance analysis on a Biacore T100 instrument (GE Healthcare Biacore, Inc.). Antibodies were immobilized onto a CM5 sensor chip through an indirect capturing reagent, anti-human IgG(Fc). Reagents from the “Human Antibody Capture Kit” (BR-1008-39, GE Healthcare Biacore, Inc.) were used as described by the manufacturer. Anti-TWEAKR antibodies were injected at a concentration of 10 μg/ml at 10 μl/min for 10 sec.
Sensorgrams were generated after in-line reference cell correction followed by buffer sample subtraction. The dissociation equilibrium constant (KD) was calculated based on the ratio of association (kon) and dissociation rated (koff) constants, obtained by fitting sensorgrams with a first order 1:1 binding model.
In general terms: Surface plasmon resonance follows binding to a sensor surface in real time, without labels.

The target in a further experiment is T2, TWEAKR-Fc WT (TPP-599) (Homo sapiens, UniProt Q9NP84).
T2 construct: TPP-599; HUMAN-TNFRSF12Aaa28-80-hIgG1-Fc; 138; made in house
Nature of the experiment: ELISA mutein binding. Particulars: coating 62 ng/ml; biotinylated IgG from 100 nM; read-out: IC50 of antibody binding, WT. As for the experimental part: (§1) Therefore, the full ectodomain (amino acids 28-80) with the following single amino acid substitutions were expressed and purified as Fc fusion proteins: T33Q; S40R; W42A; M50A; R56P; H60K; L65Q.
(§2) To collect dose-response data, the different TWEAKR-Fc muteins were coated with a low concentration (62 ng/ml) in a 384-well Maxisorb ELISA plate and a serial 2fold dilution of biotinylated IgG starting with a concentration of 100 nM was used as soluble binding partner. Detection was done with Streptavidin-HRP and Amplex Red.
(§3) IgGs were biotinylated using an approximately 2-fold molar excess of biotin-LC-NHS (Pierce; Cat. No. 21347) according to manufacturer's instructions and desalted using Zeba desalting columns (Pierce; Cat. No. 89889). The dose-response data were fitted and IC50s determined.
For orientation: In an ELISA, binding on a coated surface is turned into a signal by an enzyme label.

In experiment [2] the target is T3, TWEAKR-Fc mutein H60K (TPP-1989) (Homo sapiens, UniProt Q9NP84, H60K).
T3 construct: the full ectodomain (amino acids 28-80) with the following single amino acid substitutions; made in house
Nature of the experiment: ELISA mutein binding. Particulars: coating 62 ng/ml; biotinylated IgG from 100 nM; read-out: IC50 of antibody binding, H60K. The method, then:
as §1, §2, §3

Experiment [3] has as its target T4, TWEAKR-Fc mutein L65Q (TPP-1990) (Homo sapiens, UniProt Q9NP84, L65Q).
T4 construct: the full ectodomain (amino acids 28-80) with the following single amino acid substitutions; made in house
The experiment in a line: ELISA mutein binding. Particulars: coating 62 ng/ml; biotinylated IgG from 100 nM; read-out: IC50 of antibody binding, L65Q. As for the experimental part: as §1, §2, §3

Experiment [4] deals with T5, TWEAKR-Fc mutein M50A (TPP-1988) (Homo sapiens, UniProt Q9NP84, M50A).
T5 construct: the full ectodomain (amino acids 28-80) with the following single amino acid substitutions; made in house
The experiment in a line: ELISA mutein binding. The settings on record: coating 62 ng/ml; biotinylated IgG from 100 nM; read-out: IC50 of antibody binding, M50A. As for the experimental part: as §1, §2, §3

Experiment [5] concerns the target T6, TWEAKR-Fc mutein R56P (TPP-2683) (Homo sapiens, UniProt Q9NP84, R56P).
T6 construct: the full ectodomain (amino acids 28-80) with the following single amino acid substitutions; made in house
The experiment in a line: ELISA mutein binding. The settings on record: coating 62 ng/ml; biotinylated IgG from 100 nM; read-out: IC50 of antibody binding, R56P. The method, then:
as §1, §2, §3

Experiment [6] concerns the target T7, TWEAKR-Fc mutein S40R (TPP-1987) (Homo sapiens, UniProt Q9NP84, S40R).
T7 construct: the full ectodomain (amino acids 28-80) with the following single amino acid substitutions; made in house
Nature of the experiment: ELISA mutein binding. Particulars: coating 62 ng/ml; biotinylated IgG from 100 nM; read-out: IC50 of antibody binding, S40R. As for the experimental part:
as §1, §2, §3

In experiment [7] the target is T8, TWEAKR-Fc mutein T33Q (TPP-1986) (Homo sapiens, UniProt Q9NP84, T33Q).
T8 construct: the full ectodomain (amino acids 28-80) with the following single amino acid substitutions; made in house
Nature of the experiment: ELISA mutein binding. The settings on record: coating 62 ng/ml; biotinylated IgG from 100 nM; read-out: IC50 of antibody binding, T33Q. The method, then:
as §1, §2, §3

For experiment [8], the target named is T9, TWEAKR-Fc mutein W42A (TPP-1985) (Homo sapiens, UniProt Q9NP84, W42A).
T9 construct: the full ectodomain (amino acids 28-80) with the following single amino acid substitutions; made in house
The experiment in a line: ELISA mutein binding. The settings on record: coating 62 ng/ml; biotinylated IgG from 100 nM; read-out: IC50 of antibody binding, W42A. As for the experimental part: as §1, §2, §3

A further experiment deals with TWEAKR (Homo sapiens, UniProt Q9NP84). The settings on record: published data; read-out: KD / binding affinity to TWEAKR (published); cited from earlier work.

B1: P2D3(TPP-2196): reference anti-TWEAKR antibody, murine IgG2a, from WO2009/140177; SEQ ID NO 131/132 (protein)
light: DIVLTQSPASLAVSLGQRATISCRASKSVSTSSYSYMHWYQQKPGQPPKLLIKYTSNLESGVPARFSGSGSGTDFILNIHPVEEEDAATYYCQHSRELPWTFGGGTKLEIKRADAAPTVSIFPPSSEQLTSGGASVVCFLNNFYPKDINVKWKIDGSERQNGVLNSWTDQDSKDSTYSMSSTLTLTKDEYERHNSYTCEATHKTSTSPIVKSFNRNEC
heavy: QVSLKESGPGILQPSQTLSLTCSFSGFSLSTSGMGVSWIRQPSGKGLEWLAHIYWDDDKRYNPSLKSRLTISKDTSRNQVFLKITSVDTADTATYYCARRGPDYYGYYPMDYWGQGTSVTVSAKTTAPSVYPLAPVCGDTTGSSVTLGCLVKGYFPEPVTLTWNSGSLSSGVHTFPAVLQSDLYTLSSSVTVTSSTWPSQSITCNVAHPASSTKVDKKIEPRGPTIKPCPPCKCPAPNLLGGPSVFIFPPKIKDVLMISLSPIVTCVVVDVSEDDPDVQISWFVNNVEVHTAQTQTHREDYNSTLRVVSALPIQHQDWMSGKEFKCKVNNKDLPAPIERTISKPKGSVRAPQVYVLPPPEEEMTKKQVTLTCMVTDFMPEDIYVEWTNNGKTELNYKNTEPVLDSDGSYFMYSKLRVEKKNWVERNSYSCSVVHEGLHNHHTTKSFSRTPG
modifications: Mus Musculus
In [1], B1 yielded a ka of 1.32e+06 M⁻¹ s⁻¹ and a kd of 0.000564 s⁻¹. This molecule also returned a Kd in experiment [1] (monovalent KD) of 0.4 nM.

B2: 18.3.3(TPP-2193): reference anti-TWEAKR antibody, murine IgG2a, from WO2009/020933; SEQ ID NO 129/130 (protein)
light: DIVLTQSPASLAVSLGQRATISCKASQSVSTSTYSYMQWYQQRPGQSPKLLIKYASKLDSGVPARFSGSGSGTDFTLNIHPVEEEDTATYYCQHSWELPYTFGGGTRLEIKRADAAPTVSIFPPSSEQLTSGGASVVCFLNNFYPKDINVKWKIDGSERQNGVLNSWTDQDSKDSTYSMSSTLTLTKDEYERHNSYTCEATHKTSTSPIVKSFNRNEC
heavy: EVKLGESGGGLVQPGGSMKLSCVASGFPFTKYWMNWVRQSPEKGLEWVAEIRLKSDNYATHYAESAKGRFTISRDDSRSSVYLQMNNLRAEDTAIYYCSPTYADTMDYWGQGTSVTVSSAKTTAPSVYPLAPVCGDTTGSSVTLGCLVKGYFPEPVTLTWNSGSLSSGVHTFPAVLQSDLYTLSSSVTVTSSTWPSQSITCNVAHPASSTKVDKKIEPRGPTIKPCPPCKCPAPNLLGGPSVFIFPPKIKDVLMISLSPIVTCVVVDVSEDDPDVQISWFVNNVEVHTAQTQTHREDYNSTLRVVSALPIQHQDWMSGKEFKCKVNNKDLPAPIERTISKPKGSVRAPQVYVLPPPEEEMTKKQVTLTCMVTDFMPEDIYVEWTNNGKTELNYKNTEPVLDSDGSYFMYSKLRVEKKNWVERNSYSCSVVHEGLHNHHTTKSFSRTPG
modifications: Mus Musculus
Usually IC50 stands for the concentration needed to halve the response being measured. In experiment [1], B2 displayed a ka of 1.64e+07 M⁻¹ s⁻¹. In experiment [1], the kd was 0.0285 s⁻¹. For the same molecule, the IC50 is 0.001 to 0.15 nM with TWEAKR-Fc WT (TPP-599); 0.001 to 0.15 nM in experiment [2]; 0.001 to 0.15 nM in experiment [3]; 0.001 to 0.15 nM in experiment [4]; above 50 nM in [5]; 0.001 to 0.15 nM in experiment [6]. The IC50 in experiment [7] was 0.001 to 0.15 nM; in experiment [8] it was above 50 nM. Besides, the Kd in the experiment with TWEAKR is 0.2 nM.

B3: 136.1(TPP-2194): reference anti-TWEAKR antibody, murine IgG2a, from WO2009/020933; SEQ ID NO 123/124 (protein)
light: B2 light with A12T, K24R, T33S, S47P, S56T, K57N, T87A, L98I, R107K
heavy: EVKLEESGGGLVQPGGSMKLSCVASGFTFNNYWMSWVRQSPEKGLEWLAEIRLKSDNYATHYAESVKGKFTISRDDSKSRLYLQMNNLRAENTGIYYCTGGFADYFDYWGQGTTLTVSSAKTTAPSVYPLAPVCGDTTGSSVTLGCLVKGYFPEPVTLTWNSGSLSSGVHTFPAVLQSDLYTLSSSVTVTSSTWPSQSITCNVAHPASSTKVDKKIEPRGPTIKPCPPCKCPAPNLLGGPSVFIFPPKIKDVLMISLSPIVTCVVVDVSEDDPDVQISWFVNNVEVHTAQTQTHREDYNSTLRVVSALPIQHQDWMSGKEFKCKVNNKDLPAPIERTISKPKGSVRAPQVYVLPPPEEEMTKKQVTLTCMVTDFMPEDIYVEWTNNGKTELNYKNTEPVLDSDGSYFMYSKLRVEKKNWVERNSYSCSVVHEGLHNHHTTKSFSRTPG
modifications: Mus Musculus
On to B3, for which the ka in [1] is 3.84e+07 M⁻¹ s⁻¹. In experiment [1], this molecule came in with a kd of 0.0324 s⁻¹. The IC50 was 0.001 to 0.15 nM in the experiment with TWEAKR-Fc WT (TPP-599); 0.001 to 0.15 nM in experiment [2]; 0.001 to 0.15 nM in [3]; 0.001 to 0.15 nM in experiment [4]; above 50 nM in [5]; 0.001 to 0.15 nM in experiment [6]. Further, the half-maximal inhibitory concentration (IC50) in experiment [7] was 0.001 to 0.15 nM; in experiment [8], above 50 nM. The Kd with TWEAKR is 0.7 nM.
